According to patent publication US20240092867A1 (UNIVERSITY OF CHICAGO, published 2024):

B1: FabCol-FgHBD conjugates (Fab)
light: EIVLTQSPGTLSLSPGERATLSCRASQSVSSSYLAWYQQKPGQAPRLLIYGASSRATGIPDRFSGSGSGTDFTLTISRLEPEDFAVYYCQQAIGFPQTFGQGTKVEIKRTVAAPSVFIFPPSDEQLKSGTASVVCLLNNFYPREAKVQWKVDNALQSGNSQESVTEQDSKDSTYSLSSTLTLSKADYEKHKVYACEVTHQGLSSPVTKSFNRGEC
heavy: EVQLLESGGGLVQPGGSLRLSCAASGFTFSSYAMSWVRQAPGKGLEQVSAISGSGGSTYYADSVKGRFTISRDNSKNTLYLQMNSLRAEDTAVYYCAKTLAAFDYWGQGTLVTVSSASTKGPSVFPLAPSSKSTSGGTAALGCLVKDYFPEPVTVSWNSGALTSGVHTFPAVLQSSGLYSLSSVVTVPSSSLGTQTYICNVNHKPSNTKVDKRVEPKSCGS
peptide: GCGGSLRPAPPPISGGGYRARPAKAAATQKKVERKAPDA
modifications: chemically conjugated to FabCol with sulfo-SMCC crosslinker; multiple copies per FabCol (shift of about 35 kDa)
notes: Chemical conjugate
B2: vWF A1 HBD (24 residues, C-terminal Cys) (peptide)
peptide: YIGLKDRKRPSELRRIASQVKYAC
notes: also the peptide coupled into the PEG matrix; also called vWF HBD-Cys; vWF A1 HBD peptide
B3: FabCol-p(FgHBD) recombinant fusion protein (Fab)
light: EIVLTQSPGTLSLSPGERATLSCRASQSVSSSYLAWYQQKPGQAPRLLIYGASSRATGIPDRFSGSGSGTDFTLTISRLEPEDFAVYYCQQAIGFPQTFGQGTKVEIKRTVAAPSVFIFPPSDEQLKSGTASVVCLLNNFYPREAKVQWKVDNALQSGNSQESVTEQDSKDSTYSLSSTLTLSKADYEKHKVYACEVTHQGLSSPVTKSFNRGECGAGGGSGGGHRPLDKKREEAPSLRPAPPPISGGGYRARPAKAAATQKKVERKAPDAGGGSGGGSGGGHRPLDKKREEAPSLRPAPPPISGGGYRARPAKAAATQKKVERKAPDAGGGSGGGSGGGHRPLDKKREEAPSLRPAPPPISGGGYRARPAKAAATQKKVERKAPDAGGGT
heavy: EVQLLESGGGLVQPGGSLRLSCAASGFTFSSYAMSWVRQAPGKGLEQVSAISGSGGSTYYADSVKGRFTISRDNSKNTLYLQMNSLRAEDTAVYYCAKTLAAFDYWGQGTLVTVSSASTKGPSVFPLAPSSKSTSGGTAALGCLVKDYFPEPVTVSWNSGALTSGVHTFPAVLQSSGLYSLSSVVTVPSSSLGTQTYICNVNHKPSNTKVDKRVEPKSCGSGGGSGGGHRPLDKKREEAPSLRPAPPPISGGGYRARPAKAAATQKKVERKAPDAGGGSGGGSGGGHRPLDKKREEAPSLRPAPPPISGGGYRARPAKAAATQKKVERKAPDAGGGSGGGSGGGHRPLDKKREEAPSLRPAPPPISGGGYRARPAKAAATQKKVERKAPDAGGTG
notes: Three repeats of FgHBD at the C-termini of both Fab chains

Assays:
[1] = target: T1, placental growth factor (PlGF)-1 (human, UniProt P49763-2 19-149); test: ELISA, peptide coated
T1 construct: mature; Purchased in mature form
T1 sequence (looked up): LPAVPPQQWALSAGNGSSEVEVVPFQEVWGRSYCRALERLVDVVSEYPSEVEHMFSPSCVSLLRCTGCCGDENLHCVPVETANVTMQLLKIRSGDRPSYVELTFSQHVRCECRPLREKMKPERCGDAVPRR
Description: (§1) (A) The location of laminin-derived peptides in the LG domain of laminin α3, α4, and α5 chains. (B-F) Affinity of heparin and GFs against chemically synthesized peptides derived from the LG domain of laminin α3, α4, and α5 chains. ELISA plates were coated with 10 μg/mL laminin peptide and further incubated with (B) biotinylated heparin, (C) VEGF-A165 and VEGF-A121, (D) PlGF-2 and PlGF-1, (E) PDGF-BB, or (F) FGF-2. Concentrations were 1 μg/mL for GFs and 10 μg/mL for heparin. Bound heparin was detected with streptavidin, and bound GFs with a specific antibody for each GF (n=4, mean±SEM). Statistical analyses were done using the Mann-Whitney U test by comparing the signals obtained from the laminin peptide- and the BSA-coated wells. *p<0.05, **p<0.01.
(§2) ELISA tests were performed as described above. […] 1 μg/mL of BSA served as non-binding protein control. After blocking with 2% BSA PBS-0.05% Tween 20 (PBS-T) solution, 1 μg/mL of the recombinant human proteins (VEGF-A121, VEGF-A165, PlGF-1, PlGF-2, PDGF-BB or FGF-2) or 10 μg/mL of biotinylated heparin (Sigma-Aldrich) were added. Bound GF was detected with biotinylated antibodies for human VEGF, PlGF, PDGF-BB, or FGF-2 (R&D Systems). The antibodies were detected by streptavidin-HRP (R&D Systems).

[2] = target: T2, vascular endothelial growth factor (VEGF)-A121 (human, UniProt P15692-9 27-147); test: ELISA, peptide coated
T2 construct: mature; Purchased in mature form, not glycosylated
T2 sequence (looked up): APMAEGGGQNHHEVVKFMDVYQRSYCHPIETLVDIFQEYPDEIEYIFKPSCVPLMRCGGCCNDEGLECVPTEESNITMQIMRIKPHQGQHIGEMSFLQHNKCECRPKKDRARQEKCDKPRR
Description: as §1, §2

[3] = target: T3, recombinant human syndecan-1 (human, UniProt P18827 23-254, limits assumed); test: ELISA, peptide coated, syndecan 1 µg/mL, anti-His detection
T3 construct: Histidine tag of unstated position and length
T3 sequence (looked up): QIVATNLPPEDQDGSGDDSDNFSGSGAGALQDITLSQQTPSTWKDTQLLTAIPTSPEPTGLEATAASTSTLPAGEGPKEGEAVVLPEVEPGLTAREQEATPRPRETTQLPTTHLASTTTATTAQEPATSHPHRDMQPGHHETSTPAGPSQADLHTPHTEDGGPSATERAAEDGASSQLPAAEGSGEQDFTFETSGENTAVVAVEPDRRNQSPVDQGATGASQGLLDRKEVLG
Description: (§3) ELISA tests were performed as described above. In brief, ELISA plates were coated with 1 μg/mL laminin peptide (sequences are described in Table 1, chemically synthesized by Genscript) in PBS for 2 hrs at 37° C. 1 μg/mL of BSA served as non-binding protein control. After blocking with 2% BSA PBS-T solution, 1 μg/mL of the recombinant human syndecan-1, syndecan-2, syndecan-3, syndecan-4 (all syndecan proteins are histidine-tagged; SinoBiological) were added. Bound GF was detected with anti-histidine tag antibody (1:1000 dilution, BioLegend).

[4] = target: T4, recombinant human syndecan-4 (human, UniProt P31431 19-145, limits assumed); test: as above
T4 construct: Histidine tag of unstated position and length
T4 sequence (looked up): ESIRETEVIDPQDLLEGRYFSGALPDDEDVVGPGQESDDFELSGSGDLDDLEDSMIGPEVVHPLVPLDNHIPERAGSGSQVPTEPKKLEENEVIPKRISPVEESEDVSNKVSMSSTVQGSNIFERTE
Description: as §3

[5] = target: T5, recombinant human syndecan-2 (human, UniProt P34741 19-144, limits assumed); test: as above
T5 construct: Histidine tag of unstated position and length
T5 sequence (P34741 19-144 limits assumed): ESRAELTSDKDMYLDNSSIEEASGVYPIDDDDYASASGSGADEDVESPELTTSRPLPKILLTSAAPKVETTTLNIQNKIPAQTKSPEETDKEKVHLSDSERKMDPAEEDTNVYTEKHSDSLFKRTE
Description: as §3

[6] = target: T6, vascular endothelial growth factor (VEGF)-A165 (human, UniProt P15692-4 27-191); test: ELISA, peptide coated, GF 1 µg/mL
T6 construct: mature; Purchased in mature form, not glycosylated
Description: as §1, §2

[7] = target: T7, placental growth factor (PlGF)-2 (human, UniProt P49763-3 19-170); test: ELISA, peptide coated, GF 1 µg/mL
T7 construct: mature; Purchased in mature form
T7 sequence (looked up): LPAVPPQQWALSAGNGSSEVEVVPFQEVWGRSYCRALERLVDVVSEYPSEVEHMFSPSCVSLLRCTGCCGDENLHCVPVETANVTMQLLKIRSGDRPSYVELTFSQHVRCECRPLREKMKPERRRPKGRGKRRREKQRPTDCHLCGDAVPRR
Description: as §1, §2

[8] = target: T8, fibroblast growth factor (FGF)-2 (human, UniProt P09038 143-288); test: ELISA, peptide coated, GF 1 µg/mL
T8 construct: mature; Purchased in mature form
T8 sequence (P09038 143-288): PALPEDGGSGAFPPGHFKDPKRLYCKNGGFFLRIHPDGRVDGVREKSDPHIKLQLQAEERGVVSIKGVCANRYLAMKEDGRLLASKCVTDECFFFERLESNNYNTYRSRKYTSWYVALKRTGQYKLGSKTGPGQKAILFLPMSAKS
Description: as §1, §2

[9] = target: T9, platelet-derived growth factor (PDGF)-BB (human, UniProt P01127 82-190); test: ELISA, peptide coated, GF 1 µg/mL
T9 construct: mature; Purchased in mature form
T9 sequence (P01127 82-190): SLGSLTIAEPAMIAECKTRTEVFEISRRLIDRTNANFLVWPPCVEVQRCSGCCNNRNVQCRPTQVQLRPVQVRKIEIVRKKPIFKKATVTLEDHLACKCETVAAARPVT
Description: as §1, §2

[10] = target: T10, bovine type I collagen (bovine, UniProt P02453 178-1191; P02465 89-1102); test: ELISA, collagen I coated, 0.01-30 nM binder
T10 construct: PureCol, Advanced BioMatrix; coated on the plate; also called collagen I; PureCol
T10 sequence (P02453 178-1191, chain 1 of 2): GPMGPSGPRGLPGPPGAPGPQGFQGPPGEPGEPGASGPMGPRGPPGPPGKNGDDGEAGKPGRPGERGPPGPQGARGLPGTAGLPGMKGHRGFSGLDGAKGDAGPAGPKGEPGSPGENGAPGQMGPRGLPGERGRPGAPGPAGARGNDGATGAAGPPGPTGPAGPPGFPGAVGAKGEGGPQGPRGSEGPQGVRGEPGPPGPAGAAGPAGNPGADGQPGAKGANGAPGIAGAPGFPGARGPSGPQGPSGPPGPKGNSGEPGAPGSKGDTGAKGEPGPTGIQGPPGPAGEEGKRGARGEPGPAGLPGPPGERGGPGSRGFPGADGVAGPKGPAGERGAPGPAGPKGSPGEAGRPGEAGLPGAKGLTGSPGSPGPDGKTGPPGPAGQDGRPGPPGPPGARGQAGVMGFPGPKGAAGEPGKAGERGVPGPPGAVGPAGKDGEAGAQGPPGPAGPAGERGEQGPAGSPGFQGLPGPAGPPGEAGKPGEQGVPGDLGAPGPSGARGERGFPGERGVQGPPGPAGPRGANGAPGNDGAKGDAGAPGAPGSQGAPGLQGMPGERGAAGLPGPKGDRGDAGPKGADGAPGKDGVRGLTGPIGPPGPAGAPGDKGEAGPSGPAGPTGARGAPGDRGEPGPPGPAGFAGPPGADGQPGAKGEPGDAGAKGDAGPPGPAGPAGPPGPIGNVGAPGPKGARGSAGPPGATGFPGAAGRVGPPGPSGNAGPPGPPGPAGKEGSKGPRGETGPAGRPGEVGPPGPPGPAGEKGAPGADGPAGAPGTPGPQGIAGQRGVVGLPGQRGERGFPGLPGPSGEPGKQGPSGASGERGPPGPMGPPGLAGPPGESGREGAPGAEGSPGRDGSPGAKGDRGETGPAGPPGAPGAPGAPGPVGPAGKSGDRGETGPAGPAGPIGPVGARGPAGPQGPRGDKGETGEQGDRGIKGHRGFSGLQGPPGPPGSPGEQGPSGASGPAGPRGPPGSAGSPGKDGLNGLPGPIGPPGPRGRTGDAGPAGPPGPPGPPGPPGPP
T10 sequence (P02465 89-1102, chain 2 of 2): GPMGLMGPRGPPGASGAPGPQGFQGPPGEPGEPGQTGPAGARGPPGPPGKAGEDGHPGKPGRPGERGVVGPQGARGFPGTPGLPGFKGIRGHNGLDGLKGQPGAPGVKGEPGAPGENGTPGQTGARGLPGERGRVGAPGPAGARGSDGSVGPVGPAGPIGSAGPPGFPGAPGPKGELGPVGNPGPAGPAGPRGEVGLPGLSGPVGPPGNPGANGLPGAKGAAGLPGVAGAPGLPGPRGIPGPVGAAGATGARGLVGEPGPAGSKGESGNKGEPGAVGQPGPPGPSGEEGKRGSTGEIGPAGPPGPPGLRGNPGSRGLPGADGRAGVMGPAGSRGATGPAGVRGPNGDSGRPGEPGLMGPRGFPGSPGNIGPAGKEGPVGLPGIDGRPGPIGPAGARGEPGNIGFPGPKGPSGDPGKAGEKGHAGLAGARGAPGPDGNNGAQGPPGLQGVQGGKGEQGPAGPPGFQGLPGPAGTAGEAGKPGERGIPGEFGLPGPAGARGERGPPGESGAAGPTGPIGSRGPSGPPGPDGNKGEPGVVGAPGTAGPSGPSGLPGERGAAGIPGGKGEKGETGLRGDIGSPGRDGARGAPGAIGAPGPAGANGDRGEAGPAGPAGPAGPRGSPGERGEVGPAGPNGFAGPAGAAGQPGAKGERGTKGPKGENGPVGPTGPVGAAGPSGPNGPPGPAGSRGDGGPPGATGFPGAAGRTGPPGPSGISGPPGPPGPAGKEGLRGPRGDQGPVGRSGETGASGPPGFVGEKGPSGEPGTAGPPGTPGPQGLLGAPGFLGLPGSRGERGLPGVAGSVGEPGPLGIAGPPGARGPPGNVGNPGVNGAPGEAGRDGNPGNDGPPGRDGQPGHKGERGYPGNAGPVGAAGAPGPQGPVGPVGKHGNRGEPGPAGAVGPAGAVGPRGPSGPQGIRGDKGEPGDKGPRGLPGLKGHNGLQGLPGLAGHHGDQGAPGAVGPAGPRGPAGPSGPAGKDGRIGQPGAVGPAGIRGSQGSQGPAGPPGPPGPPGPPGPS
Description: ELISA plates (NUNC MaxiSorp, ThermoFisher Scientific) were coated overnight with 10 μg/mL of bovine type I collagen (PureCol, Advanced BioMatrix, San Diego CA, USA) at room temperature. The plate was further blocked using 2% bovine serum albumine (BSA) for 2 h at room temperature. […] The plate was washed thrice in PBST, and an horseradish peroxidase-conjugated anti-human Fab antibody (Jackson ImmunoResearch,) was used to detect bound FabCol variants. […] Absorbance at 450 nm was read using […], and corrected using the absorbance at 570 nm. Curve fits and dissociation constant KD were computed using Prism (GraphPad Software Inc., USA).

[11] = target: T2, vascular endothelial growth factor …; test: ELISA; peptides and vWF forms coated at 50 nM, VEGF-A in solution, detected with anti-VEGF-A antibody [panel D]
Description: (A) Diagram of exon sequence of VEGF-A showing inclusion (+) or exclusion (−) of heparin binding domain exons for the different VEGF-A isoforms. […] Bound VEGF-A was detected using a specific antibody for VEGF-A (n=4, mean±SD). Statistical comparisons were done using ANOVA with Tukey's test compared with BSA control. **p<0.01.
ELISA was performed as previously reported1. […] After blocking with 2% BSA solution containing PBS-T, 1 μg/mL of recombinant human VEGF-A121 (PeproTech), recombinant human VEGF-A145 (R & D Systems), or recombinant human VEGF-A165 (PeproTech) was added. Bound VEGF-A was detected with 1 μg/mL of mouse anti-human VEGF-A antibody (clone: 26503, R & D systems). After 60 min of incubation, horseradish peroxidase (HRP) conjugated goat anti-mouse antibody (1:2000 dilution, Dako) was added and incubated for another 60 min. Color development and the absorbance measurement were done as described above.

[12] = target: T9, platelet-derived growth factor (PDGF)-BB; test: ELISA; peptide coated (10 µg/mL, legend paragraph 53), 1 µg/mL PDGF-BB in solution, BSA-coated wells as control [panel E]
Description: as §1, §2

[13] = target: T7, placental growth factor (PlGF)-2; test: ELISA; peptide coated (10 µg/mL, legend paragraph 53), 1 µg/mL PlGF-2 in solution, BSA-coated wells as control [panel D]
Description: as §1, §2

[14] = target: T6, vascular endothelial growth factor …; test: cell-based or functional assay
[15] = target: T9, platelet-derived growth factor (PDGF)-BB; test: cell-based or functional assay
[16] = target: T11, recombinant human BMP-2 (human, UniProt P12643 283-396); test: ELISA, rhBMP-2 coated 50 nM, binder 50 nM
T11 construct: also called rhBMP-2
T11 sequence (P12643 283-396 limits assumed): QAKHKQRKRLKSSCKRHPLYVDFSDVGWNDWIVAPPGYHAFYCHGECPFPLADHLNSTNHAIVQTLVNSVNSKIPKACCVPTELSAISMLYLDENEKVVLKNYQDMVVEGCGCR
Description: ELISA plates (NUNC MaxiSorp) were coated with 50 nM of recombinant human BMP-2 (CHO produced, R&D Systems, Minneapolis MN, USA) overnight at room temperature.

Row | Binder | binding result [1] | binding result [2] | binding result [3] | binding result [4] | binding result [5] | binding result [6] | binding result [7] | binding result [8] | binding result [9] | also measured
1 | PLFLLHKKGKNLSKPKASQNKKGGKSK (Chemically synthesized (Genscript)) [laminin α4 1408-1434 peptide (Linker)] | no binding (tested: 1 µg/mL) | no binding (tested: 1 µg/mL) | binds | binds | binds | binds | binds | binds | binds | 
2 | B1 |  |  |  |  |  |  |  |  |  | Kd [10]: ~2.8 nM
3 | RLVFALGTDGKKLRIKSKEKCNDGK (Chemically synthesized (Genscript)) [laminin α3 3043-3067 peptide (LG4)] | no binding (tested: 1 µg/mL) | no binding (tested: 1 µg/mL) | binds | binds | binds | binds | binds | binds | binds | 
4 | B2 |  |  |  |  |  |  |  |  |  | binding result [11]: no binding (tested: 1 µg/mL VEGF-A121 (single concentration))
5 | PPFLMLLKGSTRFNKTKTFR (Chemically synthesized (Genscript)) [laminin α3 2932-2951 peptide (Linker)] | no binding (tested: 1 µg/mL) | no binding (tested: 1 µg/mL) |  |  |  | binds |  | binds |  | binding result [12]: binds; binding result [13]: binds
6 | NQEQVSPLRQRSRPGRWHKVSVRWEKNR [α2PI1-8-α5 3417-3436] |  |  |  |  |  |  |  |  |  | cumulative release of GF from peptide-functionalized fibrin matrix after 5 days [14]: 31%; cumulative release of GF from peptide-functionalized fibrin matrix after 5 days [15]: 47%
7 | NQEQVSPLRLVFALGTDGKKLRIKSKEKCNDGK [α2PI1-8-α3 3043-3067] |  |  |  |  |  |  |  |  |  | cumulative release of GF from peptide-functionalized fibrin matrix after 5 days [14]: 25%; cumulative release of GF from peptide-functionalized fibrin matrix after 5 days [15]: 45%
8 | B3 |  |  |  |  |  |  |  |  |  | binding result [16]: binds; Kd [10]: ~1.7 nM
9 | RQRSRPGRWHKVSVRWEKNR (Chemically synthesized (Genscript)) [laminin α5 3417-3436 peptide (LG4)] | no binding (tested: 1 µg/mL) | no binding (tested: 1 µg/mL) | binds | binds | binds | binds | binds | binds | binds | 
